The target in assay [1] is rat ASIC1b channel, homomeric (rat) (UniProt P55926).
Assay [2] deals with rat ASIC1a channel, homomeric (rat) (UniProt P55926).
For assay [3] the target is unchanged. This is another data set of the same source.
The subject of assay [4] is rASIC1b. The note with it: literature, cited from earlier work.
The test system of assay [5] is rASIC1a/3. The note with it: reported in literature; cited from earlier work.

Where two headings read alike, the source gives them in different places. Where no end group is shown, it is not given here.

Chain of rat ASIC1a channel, homomeric (rat) (P55926 whole entry): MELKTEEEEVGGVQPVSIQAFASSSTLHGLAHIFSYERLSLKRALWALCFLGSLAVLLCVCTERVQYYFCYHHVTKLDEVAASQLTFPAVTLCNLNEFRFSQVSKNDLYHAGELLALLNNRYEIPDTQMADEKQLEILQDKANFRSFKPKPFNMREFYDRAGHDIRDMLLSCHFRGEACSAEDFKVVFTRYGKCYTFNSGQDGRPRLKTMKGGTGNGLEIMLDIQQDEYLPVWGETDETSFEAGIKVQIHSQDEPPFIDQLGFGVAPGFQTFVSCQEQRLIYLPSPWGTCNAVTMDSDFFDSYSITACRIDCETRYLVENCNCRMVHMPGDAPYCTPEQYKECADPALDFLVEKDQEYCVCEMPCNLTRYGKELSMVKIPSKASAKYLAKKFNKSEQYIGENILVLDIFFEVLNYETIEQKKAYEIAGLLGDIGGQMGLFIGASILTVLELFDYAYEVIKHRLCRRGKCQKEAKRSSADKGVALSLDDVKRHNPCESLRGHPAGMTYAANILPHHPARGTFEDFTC
Chain of rat ASIC1b channel, homomeric (rat) (P55926 other isoform, or with tags, fused parts or gaps): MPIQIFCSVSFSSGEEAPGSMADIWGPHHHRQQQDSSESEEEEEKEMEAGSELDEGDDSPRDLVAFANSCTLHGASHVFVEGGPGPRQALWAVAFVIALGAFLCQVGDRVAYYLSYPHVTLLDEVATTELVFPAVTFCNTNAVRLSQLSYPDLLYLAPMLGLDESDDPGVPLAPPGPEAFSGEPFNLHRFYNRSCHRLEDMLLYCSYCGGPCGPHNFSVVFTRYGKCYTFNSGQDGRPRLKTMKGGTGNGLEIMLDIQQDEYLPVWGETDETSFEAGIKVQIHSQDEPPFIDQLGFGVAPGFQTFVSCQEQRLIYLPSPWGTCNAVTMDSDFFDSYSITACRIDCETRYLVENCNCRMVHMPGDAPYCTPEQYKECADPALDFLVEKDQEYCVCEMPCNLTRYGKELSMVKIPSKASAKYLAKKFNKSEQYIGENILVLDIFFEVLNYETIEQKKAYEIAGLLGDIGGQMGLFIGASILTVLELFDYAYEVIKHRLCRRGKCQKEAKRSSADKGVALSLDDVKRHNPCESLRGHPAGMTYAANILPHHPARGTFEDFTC

Turning to “mambalgin (Mamb), wild-type peptide (from UniProt P0DKS3 1-57)”, the IC50 of inhibition of pH 5.5-evoked currents of homomeric rASIC1b in Xenopus oocytes (TEVC; peptide applied for 30 s at pH 7.4) in assay [1] is 119 nM. Further, the IC50 of inhibition of pH 5.5-evoked currents of homomeric rASIC1a in Xenopus oocytes (TEVC; peptide applied for 30 s at pH 7.4) in assay [2] was determined as 110 nM. For the same substance, in assay [3], the IC50 of inhibition of pH 6.7-evoked currents of homomeric rASIC1a in Xenopus oocytes (TEVC; peptide applied for 30 s at pH 7.4) came to 86 nM.
As usually defined, the IC50 is the point on the concentration scale where inhibition reaches its midpoint. “Mamb-1 (LKCYQHGKVVTCHRDMKFCYHNTGMPFRNLKLILQGCSSSCSETENNKCCSTDRCNK; ends and bridges not checked; cysteine pairing not given here; UniProt P0DKR6 22-78, looked up)”: the IC50 in assay [4] (ref 21) is 192 nM; in assay [4] (ref 27) it was 39 nM. The “effect on rASIC1a/3” value in assay [5] was “no effect”.
